Test results reported in article PMC6925226.
Where “and” joins values, the source holds several entries; their conditions need not be identical. Identical values can stand only once.

Legend:
[1] = molecular target: HML2 CA^rec C-terminal domain (CA^rec-CTD, P156-Q246) (human endogenous retrovirus HML2 (HERV-K), consensus); assay: AUC; sedimentation equilibrium, 20 mM Tris-HCl pH 8, 150 mM NaCl, 0.5 mM TCEP; 50-200 µM protein, three speeds; global fit to a monomer-dimer equilibrium (monomer to dimer); MSTAR analysis at 200 µM
[2] = molecular target: HML2 CA^rec C-terminal domain (CA^rec-CTD, P156-Q246) (human endogenous retrovirus HML2 (HERV-K), consensus); assay: solution NMR structure (inter-molecular filtered NOEs); 298 K, 20 mM Tris-HCl, 50 mM NaCl, 0.5 mM TCEP, pH 7.0; asymmetrically labelled dimer from equimolar unlabelled and 13C/15N-labelled CA^rec-CTD, 2 mM total protein
[3] = molecular target: HML2 CA^rec (consensus HML2 capsid protein, P1-Q246) (human endogenous retrovirus HML2 (HERV-K), consensus); assay: cryo-EM structure; single-particle reconstruction of particles assembled in vitro at 1.4 M NaCl, 10 mg/mL, 4 °C, 1 h; T = 1, D5, D6 and T = 3 shells

Row | Substance | Ka [1] [M⁻¹] | stoichiometry N [2] | stoichiometry N [3]
1 | HML2 CA^rec C-terminal domain (CA^rec-CTD, P156-Q246) (domain or fragment) | 3600 | 2 | 
2 | HML2 CA^rec (consensus HML2 capsid protein, P1-Q246) (natural protein) |  |  | 5 and 6
